This note sets out measurements from patent US20240343803A1 (SHANDONG SIMCERE BIOPHARMACEUTICAL, published 2024).

The IC50 is the concentration needed to halve the response being measured.

The labels stand for the following.
T1: human PVRIG-his (AcroBiosystems, Cat NO. PVG-H52H4) (human, UniProt Q6DKI7 41-171, limits assumed)
T1 construct: also called human PVRIG protein
T1 sequence (looked up): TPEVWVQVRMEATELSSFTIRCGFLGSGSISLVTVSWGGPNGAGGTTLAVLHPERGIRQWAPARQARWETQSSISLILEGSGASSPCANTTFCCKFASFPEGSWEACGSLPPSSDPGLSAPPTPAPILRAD

T2: human PVRIG on FlpinCHO-PVRIG cells (human, UniProt Q6DKI7 41-326)
T2 construct: whole, on cells
T2 sequence (looked up): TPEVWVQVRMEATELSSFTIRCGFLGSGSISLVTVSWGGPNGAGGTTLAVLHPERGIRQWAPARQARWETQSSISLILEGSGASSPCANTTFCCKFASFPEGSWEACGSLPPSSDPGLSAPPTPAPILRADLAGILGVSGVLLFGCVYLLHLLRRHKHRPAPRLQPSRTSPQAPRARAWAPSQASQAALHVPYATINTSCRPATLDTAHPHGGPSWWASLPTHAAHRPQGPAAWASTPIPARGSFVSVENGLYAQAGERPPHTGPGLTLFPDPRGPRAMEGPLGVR

B1: PVRIG-A50-H1c (Fc fusion)
chain: EVQLVESGGGLVQPGGSLRLSCAASGFTFSYYDMSWVRQAPGKGLEWVSTINSDGGRTSYVDSVKGRFTISRDNSKNTLYLQMNSLRAEDTAVYYCVEGDPHNFGLENLALRDFGSWGQGTMVTVSS
notes: humanized variant of PVRIG-A50; also called A50.VH1c; not shown: constant part not restated for the humanized forms; parents are VHH-hinge-CH2-CH3 of human IgG1; detected by anti-human
B2: PVRIG-A50-H1a (Fc fusion)
chain: B1 chain with A110S
notes: humanized variant of PVRIG-A50; also called A50.VH1a; not shown: constant part not restated for the humanized forms; parents are VHH-hinge-CH2-CH3 of human IgG1; detected by anti-human
B3: PVRIG-A50-H1b (Fc fusion)
chain: B1 chain with N108S, A110S
notes: humanized variant of PVRIG-A50; also called A50.VH1b; not shown: constant part not restated for the humanized forms; parents are VHH-hinge-CH2-CH3 of human IgG1; detected by anti-human
B4: PVRIG-A50-H2a (Fc fusion)
chain: B1 chain with D54N, G55A, S75T, N108S, A110S
notes: humanized variant of PVRIG-A50; also called A50.VH2a; not shown: constant part not restated for the humanized forms; parents are VHH-hinge-CH2-CH3 of human IgG1; detected by anti-human
B5: PVRIG-A50-H1e (Fc fusion)
chain: B1 chain with D54N, G55A, N108S, A110S
notes: humanized variant of PVRIG-A50; also called VH1e; not shown: constant part not restated for the humanized forms; parents are VHH-hinge-CH2-CH3 of human IgG1; detected by anti-human
B6: PVRIG-A118-H5 (Fc fusion)
chain: EVQLVESGGGLVQPGGSLRLSCAASETYFDLYVMGWYRQAPGKDRELVATITYTGSIKYVDSVKGRFTISRGDAKNSVYLQMNSLRAEDTAVYYCNADPSGLGRKVYWGQGTMVTVSS
notes: humanized variant of PVRIG-A118; also called A118.VH5; not shown: constant part not restated for the humanized forms; parents are VHH-hinge-CH2-CH3 of human IgG1; detected by anti-human
B7: PVRIG-A118-H6 (Fc fusion)
chain: B6 chain with Y59I, V78L
notes: humanized variant of PVRIG-A118; also called A118.VH6; not shown: constant part not restated for the humanized forms; parents are VHH-hinge-CH2-CH3 of human IgG1; detected by anti-human
B8: PVRIG-A118-H4 (Fc fusion)
chain: B6 chain with V78L, Y79S
notes: humanized variant of PVRIG-A118; also called A118.VH4; not shown: constant part not restated for the humanized forms; parents are VHH-hinge-CH2-CH3 of human IgG1; detected by anti-human
B9: PVRIG-A105-H3 (Fc fusion)
chain: EVQLVESGGGLVQPGGSLRLSCAASGRTFDRHTMTWFRQAPGKEREFVATASRIPGDTYYVDSVKGRFTISRDNAKNSVYLQMNSLRAEDTAVYYCAATSAYCSEVDCYEKGSWYDNWGQGTMVTVSS
notes: humanized variant of PVRIG-A105; also called A105.VH3; not shown: constant part not restated for the humanized forms; parents are VHH-hinge-CH2-CH3 of human IgG1; detected by anti-human
B10: PVRIG-A105-H4 (Fc fusion)
chain: B9 chain with V61S, D62H, V79L
notes: humanized variant of PVRIG-A105; also called A105.VH4; not shown: constant part not restated for the humanized forms; parents are VHH-hinge-CH2-CH3 of human IgG1; detected by anti-human
B11: PVRIG-A105-H1 (Fc fusion)
chain: B9 chain with T35S, V79L
notes: humanized variant of PVRIG-A105; also called A105.VH1; not shown: constant part not restated for the humanized forms; parents are VHH-hinge-CH2-CH3 of human IgG1; detected by anti-human
B12: PVRIG-A50 (Fc fusion)
chain: B1 chain with D54N, S75T, R87K, A88P, A110S, M122Q
notes: heavy chain antibody VHH-hinge-CH2-CH3, human IgG1 constant part; also called PVRIG-50; not shown: human IgG1 hinge-CH2-CH3
B13: PVRIG-A118 (Fc fusion)
chain: QVQLVESGGGLVQAGGSLRLSCAASETYFDLYVMGWYRQAPGKDRELVATITYTGSIKIVDSVKDRFTISRGDAKNTVSLQMSSLKPEDTAVYFCNADPSGLGRKVYWGQGTQVTVSS
notes: heavy chain antibody VHH-hinge-CH2-CH3, human IgG1 constant part; not shown: human IgG1 hinge-CH2-CH3
B14: PVRIG-A105 (Fc fusion)
chain: B9 chain with P14A, V61S, D62H, S78T, M83L, S85N, R87K, A88P, T122I, M123Q
notes: as for B13

Positions count from the first letter of the chain named.

The first assay has as its target T1, human PVRIG-his (AcroBiosystems, Cat …). The assay is described as follows: competition ELISA, PVRIG-His coated, competitor human PVRL2-mFc. Also on record: AUC: unit not given here. As for the experimental part: The ELISA plate was pre-coated with 100 μL/well of 0.5 μg/mL human PVRIG-his protein (AcroBiosystems, Cat NO. PVG-H52H4). The tested anti-PVRIG antibodies were diluted from the highest concentration of 16 nM (two-fold concentration). The diluted antibodies were mixed with 18 ng/ml human PVRL2-mFc (AcroBiosystems, Cat NO. CD2-H5257) in equal volume, added into the plate (100 μL/well), and incubated with shaking at room temperature for 2.0 hours. […] A HRP substrate, TMB (Thermo, Cat NO. 34029) was added into wells after washing the plate again for color development. After adding a termination solution to terminate the reaction, the absorbance value was read by a microplate reader (MD i3×). An inhibiting curve was drawn with concentration of antibodies as the abscissa and the corresponding OD value as the ordinate. The IC50 value was calculated by using a Four Parameter Logistic Fit (GraphPadPrism9). The smaller the IC50 value, the stronger the ability of the antibodies inhibits the binding between PVRIG and PVRL2. The positive and negative controls are the same as in Example 8.
The methods refer to Example 11. The inhibiting activity of the humanized antibodies was normalized to the corresponding parental antibodies. If the percentage value is higher than 100%, the inhibiting effect of humanized antibodies is better than that of parental antibodies.
On to B1, for which the “% relative activity (AUC) parental antibody/test antibody” value stood at 76.3%, the “% relative activity (IC50) parental antibody/test antibody” value is 65.9%, the AUC amounted to 2.62 and the IC50 was 1.18 nM.
For B2, in that order: 82.5%, 73%, 2.43 and 1.06 nM.
For the molecule B3, the “% relative activity (AUC) parental antibody/test antibody” value was 105%, the “% relative activity (IC50) parental antibody/test antibody” value was determined as 125%, the AUC amounted to 2 and the concentration for half-maximal inhibition (IC50) was 0.847 nM.
Turning to B4, the “% relative activity (AUC) parental antibody/test antibody” value is 86.4%, the “% relative activity (IC50) parental antibody/test antibody” value stood at 85.3%, the AUC was 2.32 and the 50% inhibitory concentration (IC50) came to 0.911 nM.
In the case of B5, the “% relative activity (AUC) parental antibody/test antibody” value worked out at 86.2%, the “% relative activity (IC50) parental antibody/test antibody” value is 79.5%, the AUC was determined as 2.32 and the half-maximal inhibitory concentration (IC50) was 0.977 nM.
The corresponding values for B6 are 114%, 146%, 1.39 and 0.381 nM.
For B7, in that order: 108%, 132%, 1.47 and 0.422 nM.
The corresponding values for B8 are 112%, 120%, 1.42 and 0.462 nM.
With B9, the “% relative activity (AUC) parental antibody/test antibody” value was determined as 101%, the “% relative activity (IC50) parental antibody/test antibody” value came out at 97.9%, the AUC came to 2.52 and the IC50 was 0.752 nM.
As to B10, the “% relative activity (AUC) parental antibody/test antibody” value came to 109%, the “% relative activity (IC50) parental antibody/test antibody” value was 107%, the AUC worked out at 2.32 and the half-inhibitory concentration (IC50) stood at 0.686 nM.
For B11, the “% relative activity (AUC) parental antibody/test antibody” value came to 112%, the “% relative activity (IC50) parental antibody/test antibody” value was 133%, the AUC stood at 2.27 and the half-inhibitory concentration (IC50) turned out to be 0.555 nM.

Another assay has as its target T2, human PVRIG on FlpinCHO-PVRIG cells. Briefly: FACS, FlpinCHO-PVRIG cells. The protocol: The Ham's F12 (Gibico, 21127-022) complete medium containing 10% FBS was then added to terminate the digestion and acquire cell suspension. After counting with a cell counter (Beckman Coulter, Vi-CELL), an appropriate amount of cell suspension was centrifuged at 350×g to remove the supernatant, washed twice with PBS, stained with Zombie violet (Biolegend, 423114) and incubated at room temperature for 20 minutes. After incubation, the cells were added with staining buffer (2% FBS+PBS) to stop staining, centrifuged at 350×g to remove the supernatant, washed twice and resuspended with staining buffer to a density of 2×10⁶ cells/mL. The cells were plated into a 96-well plate (50 μL of cell suspension per well) for further use. The antibodies were diluted from the highest concentration of 46 nM (two-fold concentration) with staining buffer by 3.3-fold serial dilution. The diluted antibodies were added to the well containing 50 μL of cell suspension. The plate was placed on a microplate shaker at 400 rpm for 1 minute to fully mix the antibodies and cells, and then incubated at 4° C. for 30 minutes. After the incubation, the cells were washed twice with staining buffer (200 μL per well) and centrifuged at 350×g for 5 minutes to discard the supernatant. The PE goat anti-human IgG Fc antibody (ebioscience, 12-4998-82) was diluted 250 times with staining buffer, added into the washed wells (100 μL per well), mixed well, and stained at 4° C. for 30 minutes. After staining, the cells were washed twice with staining buffer, finally resuspended with 200 μL staining buffer and analyzed by flow cytometry (BD, Canto II). The stronger the signal, the stronger the ability of the antibodies binds to PVRIG. An antibody binding curve was drawn with concentration of antibodies as the abscissa and the corresponding Mean Fluorescence Intensity (MFI) as the ordinate. The AUC value of the curve was calculated by using a Four Parameter Logistic Fit (GraphPadPrism9). The stronger the AUC value, the stronger the ability of the antibodies binds to FlpinCHO-PVRIG and FlpinCHO-cyno PVRIG. […] The binding activity of the antibodies was normalized to the positive control COM701-hIgG1 and SRF813-hIgG1.
Background: A flow cytometer gives signals particle by particle.
Consider B12, for which the “AUC % to COM701-hIgG1” value is 73.4%, the “AUC % to SRF813-hIgG1” value amounted to 130% and the “AUC % to parental Ab” value amounted to 100%.
The corresponding values for B1 are 69.2%, 122% and 94.2%.
In the case of B2, the “AUC % to COM701-hIgG1” value came to 70.4%, the “AUC % to SRF813-hIgG1” value stood at 125% and the “AUC % to parental Ab” value turned out to be 96%.
For B3, the “AUC % to COM701-hIgG1” value worked out at 60.5%, the “AUC % to SRF813-hIgG1” value was found to be 107% and the “AUC % to parental Ab” value was 82.5%.
For the molecule B4, the “AUC % to COM701-hIgG1” value worked out at 61.9%, the “AUC % to SRF813-hIgG1” value was 110% and the “AUC % to parental Ab” value came out at 84.4%.
For B5, in that order: 60.3%, 107% and 82.2%.
The corresponding values for B13 are 136%, 191% and 100%.
On to B6, for which the “AUC % to COM701-hIgG1” value was 128%, the “AUC % to SRF813-hIgG1” value came to 179% and the “AUC % to parental Ab” value was 93.9%.
Consider B7, for which the “AUC % to COM701-hIgG1” value came out at 129%, the “AUC % to SRF813-hIgG1” value was determined as 180% and the “AUC % to parental Ab” value worked out at 94.2%.
As for B8, the “AUC % to COM701-hIgG1” value was 132%, the “AUC % to SRF813-hIgG1” value is 185% and the “AUC % to parental Ab” value is 97%.
For B14, the “AUC % to COM701-hIgG1” value was found to be 124%, the “AUC % to SRF813-hIgG1” value turned out to be 186% and the “AUC % to parental Ab” value is 100%.
The corresponding values for B9 are 125%, 189% and 101%.
On to B10, for which the “AUC % to COM701-hIgG1” value is 115%, the “AUC % to SRF813-hIgG1” value stood at 174% and the “AUC % to parental Ab” value was 93.1%.
The corresponding values for B11 are 123%, 185% and 99.1%.
